Reference: US20250144141A1 (CDR LIFE, published 2025)
Positions count from the first letter of the chain named. Each block holds one binder with its values, some of them ahead of it.

Columns and labels:
[1] = biological target: T1, HLA-A*02:01/MAGE-A4 complex (human, UniProt P04439 25-299 at identity 0.94); P61769 21-119); experiment: SPR (Biacore T200), HLA-A*02:01/MAGE-A4 as ligand; sample kept in human serum at 37 C for 0, 7 and 24 h and injected after 1:100 dilution; signal relative to the start sample
T1 construct: Coated on ELISA plates and on a streptavidin SPR chip; a biotin tag is not described; also called HLA-A2/MAGE-A4 complex; pMHC-MAGE-A4

[2] = biological target: CD3 heterodimer (Acro Biosystems) (UniProt P07766 23-126); experiment: not stated in the sentence (SPR on a CD3 heterodimer chip is described in Example 7)
[3] = biological target: T1, HLA-A*02:01/MAGE-A4 complex; experiment: not stated in the sentence (SPR is described in Example 7)
[4] = biological target: T1, HLA-A*02:01/MAGE-A4 complex; experiment: direct ELISA, plate coated with HLA-A*02:01/MAGE-A4 complex, serial dilution of the Fab
[5] = biological target: T1, HLA-A*02:01/MAGE-A4 complex; experiment: SPR

Chain of CD3 heterodimer (Acro Biosystems) (P07766 23-126, one chain of several): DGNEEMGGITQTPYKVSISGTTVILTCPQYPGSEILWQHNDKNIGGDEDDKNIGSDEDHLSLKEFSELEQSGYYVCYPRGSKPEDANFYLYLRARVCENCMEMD

B2: M1048 (bispecific antibody)
chain 1: EVQLVESGGGLVQPGGSLRLSCAASGFTFSTYAMNWVRQAPGKGLEWVGRIRSKYNNYATYYADSVKGRFTISRDDSKNTLYLQMNSLRAEDTAVYYCVRHGNFGDSYVSWFAYWGQGTLVTVSSASTKGPSVFPLAPSSKSTSGGTAALGCLVKDYFPEPVTVSWNSGALTSGVHTFPAVLQSSGLYSLSSVVTVPSSSLGTQTYICNVNHKPSNTKVDKRVEPKSCGGGGSSYELTQPPSVSVSPGQTASITCTADTLSRSYASWYQQKPGQSPVLVIYRDTSRPSGIPERFSGSNSGNTATLTISGTQAMDEADYYCATRPSSGSNFQLFGGGTKLTVLGGGGGGSGGGGSGGGGSGGGGSESQVLESGGGSVQPGGSLRLSCTVSGFSLSNYAMSWVRQAPGKGLEYIGIVSSGGTTYYASWAKGRFTISKDTSKNTVYLQMNSLRAEDTASYYCAKDLYYGPTTYSAFNLWGQGTSVTVSS
chain 2: QAVVTQEPSLTVSPGGTVTLTCGSSTGAVTTSNYANWVQQKPGKSPRGLIGGTNKRAPGVPARFSGSLLGGKAALTISGAQPEDEADYYCALWYSNHWVFGGGTKLTVLGQPKAAPSVTLFPPSSEELQANKATLVCLISDFYPGAVTVAWKADSSPVKAGVETTTPSKQSNNKYAASSYLSLTPEQWKSHRSYSCQVTHEGSTVEKTVAPTECSGGGGSSYELTQPPSVSVSPGQTASITCTADTLSRSYASWYQQKPGQSPVLVIYRDTSRPSGIPERFSGSNSGNTATLTISGTQAMDEADYYCATRPSSGSNFQLFGGGTKLTVLGGGGGGSGGGGSGGGGSGGGGSESQVLESGGGSVQPGGSLRLSCTVSGFSLSNYAMSWVRQAPGKGLEYIGIVSSGGTTYYASWAKGRFTISKDTSKNTVYLQMNSLRAEDTASYYCAKDLYYGPTTYSAFNLWGQGTSVTVSS
Kd [2]: 10 nM
Kd [3]: 0.25 nM

B3: M0702 (Fab, V domains shown)
VH: QEQLEESGGGLVTPGTPLTLTCTASGFSLSSYAMIWVRQAPGKGLEWIGTINDGGTAFYANWVKGRFTISRTSTTVDLKMTSPTTEDTATYFCARAYGSNGDVYWGYVNLWGQGTLVTVSS
VL: ELVMTQTPASVSEPVGGTVTIKCQASQSIGSNLAWYQQKPGQPPKLLIYAAANLASGVSSRFKGSRSGTEYTLTISGVQAADAATYYCQQGYSSSNVANVFGGGTELEILR
EC50 (read off the curve) [4]: ~0.6 nM

Next, values leading:

binding result [1]: binds
B1: M1403 (bispecific antibody)
heavy: B2 chain 1 with L332A, S366V, V368L, K435R, T437N
light: B2 chain 2 with L319A, S353V, V355L, K422R, T424N
notes: Fab(scFv)2 dual pMHC-targeting T cell engager, no Fc; also called dual engager M1403

Kd [5]: 0.12 nM
B4: M1067 (bispecific antibody)
chain 1: SYELTQPPSVSVSPGQTASITCTADTLSRSYASWYQQKPGQSPVLVIYRDTSRPSGIPERFSGSNSGNTATLTISGTQAMDEADYYCATRPSSGSNFQLFGGGTKLTVLGGGGGGSGGGGSGGGGSGGGGSEVQLLESGGGSVQPGGSLRLSCTVSGFSLSNYAMSWVRQAPGKGLEYIGIVSSGGTTYYASWAKGRFTISKDTSKNTVYLQMNSLRAEDTASYYCAKDLYYGPTTYSAFNLWGQGTSVTVSS
chain 2: EVQLVESGGGLVQPGGSLRLSCAASGFTFSTYAMNWVRQAPGKGLEWVGRIRSKYNNYATYYADSVKGRFTISRDDSKNTLYLQMNSLRAEDTAVYYCVRHGNFGDSYVSWFAYWGQGTLVTVSSASTKGPSVFPLAPSSKSTSGGTAALGCLVKDYFPEPVTVSWNSGALTSGVHTFPAVLQSSGLYSLSSVVTVPSSSLGTQTYICNVNHKPSNTKVDKRVEPKSC
chain 3: QAVVTQEPSLTVSPGGTVTLTCGSSTGAVTTSNYANWVQQKPGKSPRGLIGGTNKRAPGVPARFSGSLLGGKAALTISGAQPEDEADYYCALWYSNHWVFGGGTKLTVLGQPKAAPSVTLFPPSSEELQANKATLVCLISDFYPGAVTVAWKADSSPVKAGVETTTPSKQSNNKYAASSYLSLTPEQWKSHRSYSCQVTHEGSTVEKTVAPTECS
